Experiments:
[1] = biological target: T1, GST-ABI-1 (glutathione-S-transferase fused to the N terminus of full-length C. elegans ABI-1) (C. elegans, UniProt Q10929 1-469); test: pull-down; GST, GST-ABI or GST-ABIΔ on glutathione beads incubated with 25 μl of a 100 μl 35S-labelled in vitro transcription/translation reaction; 2 h at 4 °C in PBB2 (25 mM HEPES pH 7.6, 150 mM NaCl, 5 mM MgCl2, 0.1 mM EDTA, 0.1% Tween-20, 0.25% BSA); washes with 300 and 250 mM NaCl; SDS-PAGE, autoradiography, phosphorimager quantitation; conditions: one partner purified
T1 construct: ABI-1, C. elegans homolog of the Abi proteins; full-length abi-1 from cDNA yk1204a12, bp 47-1,456; Cloned in pDEST15 (Gateway). bp 47-1,456 is 1,410 bp, i.e. 469 codons and a stop if the stop codon is included; not shown: GST, N-terminal, kept
T1 sequence (looked up): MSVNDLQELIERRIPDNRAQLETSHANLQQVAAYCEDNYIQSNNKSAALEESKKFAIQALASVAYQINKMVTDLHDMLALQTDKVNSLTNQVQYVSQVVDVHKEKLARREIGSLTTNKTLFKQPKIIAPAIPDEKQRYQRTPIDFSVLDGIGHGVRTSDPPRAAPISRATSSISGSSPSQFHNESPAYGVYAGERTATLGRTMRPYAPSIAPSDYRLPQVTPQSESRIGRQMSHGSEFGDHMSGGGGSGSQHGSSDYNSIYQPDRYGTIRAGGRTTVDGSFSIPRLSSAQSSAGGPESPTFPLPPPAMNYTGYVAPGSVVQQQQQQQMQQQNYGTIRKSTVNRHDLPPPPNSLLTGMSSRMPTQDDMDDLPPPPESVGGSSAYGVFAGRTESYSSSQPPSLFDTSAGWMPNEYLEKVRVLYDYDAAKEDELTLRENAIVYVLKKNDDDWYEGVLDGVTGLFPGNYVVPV

[2] = biological target: GST-ABI-1Δ (N-terminal GST fusion to the product of the abi-1(tm494) allele) (C. elegans) (UniProt Q10929); test: as above

- fold binding in the ABI-1 lane over the GST lane (phosphorimager) [1]: 8 fold
- fold less ABL-1(112–611) bound than by ABI-1 [2]: 3 fold
B1: ABL-1(112–611), N-terminal fragment of C. elegans ABL-1 (domain or fragment, UniProt P03949 112-611, looked up)
chain: SSSSSAPLFVALYDFHGVGEEQLSLRKGDQVRILGYNKNNEWCEARLYSTRKNDASNQRRLGEIGWVPSNFIAPYNSLDKYTWYHGKISRSDSEAILGSGITGSFLVRESETSIGQYTISVRHDGRVFHYRINVDNTEKMFITQEVKFRTLGELVHHHSVHADGLICLLMYPASKKDKGRGLFSLSPNAPDEWELDRSEIIMHNKLGGGQYGDVYEGYWKRHDCTIAVKALKEDAMPLHEFLAEAAIMKDLHHKNLVRLLGVCTHEAPFYIITEFMCNGNLLEYLRRTDKSLLPPIILVQMASQIASGMSYLEARHFIHRDLAARNCLVSEHNIVKIADFGLARFMKEDTYTAHAGAKFPIKWTAPEGLAFNTFSSKSDVWAFGVLLWEIATYGMAPYPGVELSNVYGLLENGFRMDGPQGCPPSVYRLMLQCWNWSPSDRPRFRDIHFNLENLISSNSLNDEVQKQLKKNNDKKLESDKRRSNVRERSDSKSRHSSHHD
modifications: labeled with 35S in vitro
notes: contains the SH3, SH2 and tyrosine kinase domains; Cloned in pDEST14 (Gateway) for expression in vitro; also called N-terminal half of ABL-1; source: in vitro translated (TNT T7 Quick Coupled Transcription/Translation system, Promega)

From paper PMC2672617, “Abl Kinase Inhibits the Engulfment of Apopotic Cells in Caenorhabditis elegans” (PLoS Biology, 2009)
